Earlier results as cited in PMC8300624.
Read-outs that look alike come from different tables or passages of the source.

Key:
ASK1 TBD (Homo sapiens) [1] = biological target: ASK1 TBD (Homo sapiens) (UniProt Q99683)
ASK1 TBD (Homo sapiens) [2] = biological target: ASK1 TBD (Homo sapiens) (UniProt Q99683); remark: listed apart in the source

Chain of ASK1 TBD (Homo sapiens) (Q99683 88-302): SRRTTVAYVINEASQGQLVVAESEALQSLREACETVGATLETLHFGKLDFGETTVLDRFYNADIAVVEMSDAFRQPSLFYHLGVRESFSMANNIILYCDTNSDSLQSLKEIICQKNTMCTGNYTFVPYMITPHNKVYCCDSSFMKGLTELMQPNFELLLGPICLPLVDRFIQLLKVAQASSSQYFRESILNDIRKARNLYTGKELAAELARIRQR
Chain of Thioredoxin 1 (P10599 2-105): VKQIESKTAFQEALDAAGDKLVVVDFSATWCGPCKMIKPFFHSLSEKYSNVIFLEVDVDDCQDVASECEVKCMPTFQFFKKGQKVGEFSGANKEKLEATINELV

Kd (ASK1 TBD (Homo sapiens) [1]): 4 µM
Kd (ASK1 TBD (Homo sapiens) [2]): 0.3 µM
Substance: Thioredoxin 1 (from UniProt P10599)
